pKd: −log10 of the molar value. Where two headings read alike, the source gives them in different places.
Molecular target: T1, ApoER2 (Homo sapiens, UniProt Q14114)
T1 construct: purchased R&D 3520‐AR
T1 sequence (Q14114 33-963): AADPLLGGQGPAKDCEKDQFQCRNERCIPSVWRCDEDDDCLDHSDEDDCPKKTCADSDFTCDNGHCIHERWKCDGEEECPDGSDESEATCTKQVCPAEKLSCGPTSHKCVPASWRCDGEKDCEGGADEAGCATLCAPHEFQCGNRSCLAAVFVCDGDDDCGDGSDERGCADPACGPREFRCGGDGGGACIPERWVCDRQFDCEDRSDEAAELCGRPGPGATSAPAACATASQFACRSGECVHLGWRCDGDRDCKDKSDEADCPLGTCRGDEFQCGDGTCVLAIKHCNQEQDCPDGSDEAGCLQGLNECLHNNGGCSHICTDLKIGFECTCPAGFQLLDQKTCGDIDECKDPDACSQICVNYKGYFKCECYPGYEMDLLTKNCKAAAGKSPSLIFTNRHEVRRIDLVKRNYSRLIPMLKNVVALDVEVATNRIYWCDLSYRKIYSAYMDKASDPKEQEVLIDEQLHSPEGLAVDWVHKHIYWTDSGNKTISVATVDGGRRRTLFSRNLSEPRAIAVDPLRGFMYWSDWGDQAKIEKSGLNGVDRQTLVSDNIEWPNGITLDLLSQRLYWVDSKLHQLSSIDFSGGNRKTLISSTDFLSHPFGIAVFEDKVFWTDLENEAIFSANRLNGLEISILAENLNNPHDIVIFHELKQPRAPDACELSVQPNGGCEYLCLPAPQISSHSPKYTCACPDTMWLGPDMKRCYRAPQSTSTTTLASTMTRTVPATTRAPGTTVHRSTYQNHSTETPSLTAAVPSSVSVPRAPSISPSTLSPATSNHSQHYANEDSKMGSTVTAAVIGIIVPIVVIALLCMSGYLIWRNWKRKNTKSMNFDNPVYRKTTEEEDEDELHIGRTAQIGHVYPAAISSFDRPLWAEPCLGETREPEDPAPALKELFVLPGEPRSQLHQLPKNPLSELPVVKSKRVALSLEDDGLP
Experiment: Biolayer interferometry (BLI) binding of ApoER2 and sclerostin / sclerostin loop2
Protocol: The interaction of full‐length (FL)/truncated ApoER2 with full‐length (FL) /truncated sclerostin in macrophages (RAW264.7) were determined by pull‐down assay and Co‐IP assay. The binding affinity of ApoER2 to FL sclerostin and sclerostin loop2 were determined by biolayer interferometry (BLI) analysis. Moreover, the binding of sclerostin to ApoER2 on macrophages (RAW264.7) was examined by confocal microscopy.
Biolayer interferometry (BLI) analysis was performed on the Biomolecular Interaction Analyzer (ForteBio, Octet RED96e). To determine the binding affinity between ApoER2 and sclerostin, the ApoER2 protein (R&D, 3520‐AR) was biotinylated using 10 mM EZ‐Link Sulfo‐NHS‐LC‐LC‐Biotin (Thermo Scientific, 21 343) in a molar ratio of 1:20 for 2 h at 4 °C. The Slide‐A‐Lyzer Dialysis Cassettes (Thermo Scientific, 66 382) were used for excess biotin removal.^[ [61] ^] […] (SA) tray biosensors (Sartorius, 18‐5019) were used to load biotin‐ApoER2 proteins. Biosensors were pre‐wet for 10 min using 200 µL PBS containing 0.02% Tween 20 (v/v) in a 96‐well plate. […] Raw data were analyzed using Data Analysis Software (ForteBio, v8.1). All Kd values were calculated after deducting the non‐specific binding between the biosensors and the samples.^[ [62], [63] ^]

sclerostin: recombinant human/mouse full‐length sclerostin protein
pKd (Figure S6B, Sclerostin – ApoER2, read-out: Kd, binding of sclerostin to ApoER2): 8.68
pKd (Octet RED96e, biotin‐ApoER2 on streptavidin biosensors or His‐ApoER2 on HIS1K biosensors, non‐specific binding deducted, Figure 6B, read-out: Kd, binding of ApoER2 to sclerostin or sclerostin loop2): 8.42

— PMC12884772, “Macrophagic Sclerostin Loop2‐ApoER2 Interaction Required by Sclerostin for Cardiovascular Protective Action” (Advanced Science, 2025)
